Laboratory results from patent publication US20220347267A1, “METHODS TO IMPROVE PATIENT RESPONSE TO IMMUNE CHECKPOINT INHIBITORS AND FUNCTIONAL TESTS TO PREDICT RESPONSE” (Biomarker Strategies, LLC, priority 2019, published 2022).

Tested on: various NSCLC, HNSCC, breast cancer, melanoma, colorectal cancer, and pancreatic cancer cell lines
Assay: PD-L1 western blot after modulators, summary over all samples
Assay type: cell-based, human
Conditions: depending on the sample, summary of Table 3
Excerpt: Cell lines were acquired from ATCC, Sigma, or DSMZ. Human non-small cell lung carcinoma (NSCLC) cell lines H292 (ATCC no. CRL-1848.), H1299 (ATCC no. CRL-5803), H520 (ATCC no. CRL-5811), CALU6 (ATCC no. HTB-56), H1975 (ATCC no. CRL-5908), H460 (ATCC no. HTB-177), H2126 (ATCC no. CCL-256), H1650 (ATCC no. CRL-5883), and H2087 (ATCC no. CRL-5922) were used for this experiment along with head and neck squamous cell carcinoma (HNSCC) cell lines BHY (DSMZ ACC 404), CAL27 (ATCC no. CRL-2095), KYSE410 (Sigma), and A253 (ATCC no. HTB-41), melanoma cell lines A375 (ATCC no. CRL-1619), COL0853 (Sigma), and MM127 (Sigma) pancreatic cancer cell lines BXPC3 (ATCC no. CRL-1687), colorectal cancer cell lines […], HCT116 (ATCC no. CCL-247EMT), and breast cancer cell lines BT549 (ATCC no. HTB-122), BT20 (ATCC no. HTB-19), and T47D (ATCC no. HTB-133). Cells were maintained in manufacturer-recommended conditions at 37° C. inside humidified 5% CO2 incubators. Sub-cultivation and harvesting for all cell lines were performed using Accutase (GIBCO Life Technologies; cat. no. A1110501) at 37° C. for 10 minutes. Cell viability was measured using trypan blue exclusion staining in conjunction with the Countess II Automated Cell Counter (Thermo Fischer Scientific; cat. no. AMQAX1000). Measurements were made in duplicate and the average number of viable cells was recorded prior to experiments.
T7039), and IL-10 (50 ng/ml; Sigma Aldrich cat. no. SRP3071) were administered to cell lines for various times including 30 minutes, 3 hour, and 24 hour time intervals prior to cell lysis and protein extraction.
To determine the effects of the aforementioned molecules on the modulation of PD-L1, we selected various NSCLC, HNSCC, breast cancer, melanoma, colorectal cancer, and pancreatic cancer cell lines as examples. Other diseases or cell lines could be used readily as could more complex samples such as cells isolated from xenografts and clinical samples. Cells were plated, for three different time points (30 minutes, 3 hours, and 24 hours), inside 6-well petri dishes with 2 mL of appropriate medium. Plates were incubated for 24 hours in 5% CO2 incubators at 37° C. After 24 hours, each 6-well plate was washed with PBS (Gibco Life Technologies, cat. no. 10010023) followed by fresh media being added along with each cell line's vehicle control or appropriate modulator for each specific time point, and were placed in CO2 incubators until their modulation time point was reached. Other conditions can be readily used, such as processing on automated systems such as SnapPath. At the end of each time point, while keeping plates on ice, cell lysis was conducted by aspirating culture medium from each plate, washing of each plate three times with 5 ml of cold PBS (Gibco Life Technologies, cat. no. 10010023) and culminated with the addition of cold 1× lysis buffer containing (Cell Signaling, cat. no. 9803 S) protease inhibitor cocktail (Cell Signaling, cat. no. 5871S), phosphatase inhibitor cocktail (Cell Signaling, cat. no. 5870S), and PMSF (Fisher Scientific, cat. no. ICN19538101). Plates were then placed on ice for ten minutes, swirling each plate intermittently. Aliquots of protein lysates were prepared and then stored at −80° C. until protein quantification and Western blot analysis was to be conducted. The protein concentration of each lysate was analyzed by using the Pierce 660 Protein Assay Reagent (Thermo Fisher Scientific, cat. no. 22660) and testing of each sample was conducted in duplicate. Two μg of protein was then loaded per lane into 10% Midi-PROTEAN TGX Precast Gels (Bio Rad, cat. no. 5671034) along with Kaleidoscope Prestained Protein Standard (BioRad, cat. no. 1610375) which ran at 220V for 45 minutes. Proteins were transferred to mini-PVDF membranes (BioRad, cat. no. 1704156) in 3 minutes using the Trans-Blot Turbo Transfer System (BioRad, cat. no. 1704150EDU).

B1: IFNγ: human IFNγ, modulator (10 ng/ml; Sigma Aldrich) (protein, UniProt P01579 24-161, looked up)
Interferon gamma: QDPYVKEAENLKKYFNAGHSDVADNGTLFLGILKNWKEESDRKIMQSQIVSFYFKLFKNFKDDQSIQKSVETIKEDMNVKFFNSNKKKRDDFEKLTNYSVTDLNVQRKAIHELIQVMAELSPAAKTGKRKRSQMLFRG
regulation of PD-L1 across samples: only led to upregulation
